Article PMC10641069, “Intra- and inter-molecular regulation by intrinsically-disordered regions governs PUF protein RNA binding” (Nature Communications, 2023)
Like-named read-outs stand apart in the source and are kept apart here.

T1: FBF-2 RBD (Caenorhabditis elegans, UniProt Q09312)
T1 construct: The FBF-2 RBD protein (residue 164-575) was purified as described previously; His6-SUMO (N, cleaved yes); made in house; host or cells: E. coli BL21-CodonPlus (DE3)-RIL (host inferred: b50 says the procedure was otherwise the same as for RBD + CT)
T1 sequence (Q09312 whole entry, looked up): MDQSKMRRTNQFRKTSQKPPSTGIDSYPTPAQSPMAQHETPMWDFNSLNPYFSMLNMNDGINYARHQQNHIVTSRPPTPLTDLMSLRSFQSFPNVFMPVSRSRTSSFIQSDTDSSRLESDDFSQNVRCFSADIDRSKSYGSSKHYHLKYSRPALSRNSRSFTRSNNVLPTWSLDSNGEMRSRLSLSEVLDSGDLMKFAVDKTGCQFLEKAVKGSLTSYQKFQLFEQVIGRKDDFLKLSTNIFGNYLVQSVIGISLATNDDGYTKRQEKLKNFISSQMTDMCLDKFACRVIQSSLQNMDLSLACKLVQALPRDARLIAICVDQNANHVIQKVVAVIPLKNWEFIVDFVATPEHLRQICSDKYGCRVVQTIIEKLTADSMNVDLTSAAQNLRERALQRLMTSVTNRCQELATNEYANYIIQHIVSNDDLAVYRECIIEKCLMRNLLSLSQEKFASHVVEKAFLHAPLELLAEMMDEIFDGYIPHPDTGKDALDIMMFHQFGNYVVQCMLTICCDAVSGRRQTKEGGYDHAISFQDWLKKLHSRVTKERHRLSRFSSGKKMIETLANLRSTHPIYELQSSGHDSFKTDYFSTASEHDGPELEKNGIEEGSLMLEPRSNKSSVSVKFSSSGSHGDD

T2: FBF-2 RBD (Caenorhabditis elegans, UniProt Q09312 164-575)
T2 sequence: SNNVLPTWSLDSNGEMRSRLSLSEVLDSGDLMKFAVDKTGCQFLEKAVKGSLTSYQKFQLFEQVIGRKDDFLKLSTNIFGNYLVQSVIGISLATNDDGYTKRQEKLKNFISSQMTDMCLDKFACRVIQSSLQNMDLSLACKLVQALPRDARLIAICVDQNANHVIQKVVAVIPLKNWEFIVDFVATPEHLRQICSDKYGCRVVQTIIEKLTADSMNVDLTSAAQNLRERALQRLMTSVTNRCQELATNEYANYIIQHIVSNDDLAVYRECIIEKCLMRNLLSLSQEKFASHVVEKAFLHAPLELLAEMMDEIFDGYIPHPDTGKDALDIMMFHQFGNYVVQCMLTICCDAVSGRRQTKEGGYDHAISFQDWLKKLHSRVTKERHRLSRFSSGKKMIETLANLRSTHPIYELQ


What was measured:
FBF-2 RBD + CT L610A = biological target: T3, FBF-2 RBD + CT L610A (Caenorhabditis elegans, UniProt Q09312, L610A); format: binding, C. elegans; details: pH 7.4
T3 construct: A cDNA fragment encoding C. elegans FBF-2 RBD + CT (residues 164-632) was cloned into the pSMT3 vector; His6-SUMO (N, cleaved yes); made in house; host or cells: E. coli BL21-CodonPlus (DE3)-RIL (as for wild type)

FBF-2 RBD [1] = biological target: T1, FBF-2 RBD; details: reported previously, cited from earlier work
From the text: Given that the core residues of three distinct PIMs—FBF-2 CT, LST-1 A, and LST-1 B—all bind to the same site of FBF-2, we hypothesized that the intramolecular FBF-2 CT binding could compete with LST-1 A and LST-1 B binding. To assess that idea, we investigated how the CT affects the protein interaction affinities of the FBF-2 RBD to LST-1 A and LST-1 B, using isothermal titration calorimetry (ITC, Supplementary Table 3). No RNA was included in these experiments. We first measured the binding affinity of an isolated CT peptide and the FBF-2 RBD (no CT), by titrating the peptide, FBF-2^601–632, ... || Fig. 2 The FBF-2 CT competes with partner proteins for binding to the RBD. Representative isothermal titration calorimetry thermograms (top, differential power [DP] vs time) and corresponding titration curve-fitting graphs (bottom) are shown for interaction between a FBF-2 RBD and FBF-2 CT, c FBF-2 RBD + CT and LST-1 A, d FBF-2 RBD + CT and LST-1 B, e FBF-2 RBD and FBF-2 CT L610A, f FBF-2 RBD + CT L610A and LST-1 A, and g FBF-2 RBD + CT L610A and LST-1 B. Data points on the curve-fitting graphs are shown as open circles. b Previously reported mean Kd from two independent replicates with simila ... || We next compared the protein interaction affinities of LST-1 A or LST-1 B with either FBF-2 RBD + CT or RBD alone (Fig. 2c–g, Supplementary Table 3). For these experiments, we titrated the LST-1 peptide into an ITC cell containing either RBD + CT or RBD.

FBF-2 RBD [2] = biological target: T2, FBF-2 RBD; assay: EMSA; no LST-1; EMSA: FBF-2 in 20 mM HEPES pH 7.4, 150 mM NaCl, 0.5 mM TCEP mixed 1:1 with 5 nM final RNA in 10 mM HEPES pH 7.4, 0.01% Tween 20, 0.1 mg/ml BSA, 0.1 mg/ml yeast; details: protein: recombinant; tags: none (His6-SUMO removed with TEV protease); label: 3'-Cy5

T3 sequence (Q09312 164-632 L610A): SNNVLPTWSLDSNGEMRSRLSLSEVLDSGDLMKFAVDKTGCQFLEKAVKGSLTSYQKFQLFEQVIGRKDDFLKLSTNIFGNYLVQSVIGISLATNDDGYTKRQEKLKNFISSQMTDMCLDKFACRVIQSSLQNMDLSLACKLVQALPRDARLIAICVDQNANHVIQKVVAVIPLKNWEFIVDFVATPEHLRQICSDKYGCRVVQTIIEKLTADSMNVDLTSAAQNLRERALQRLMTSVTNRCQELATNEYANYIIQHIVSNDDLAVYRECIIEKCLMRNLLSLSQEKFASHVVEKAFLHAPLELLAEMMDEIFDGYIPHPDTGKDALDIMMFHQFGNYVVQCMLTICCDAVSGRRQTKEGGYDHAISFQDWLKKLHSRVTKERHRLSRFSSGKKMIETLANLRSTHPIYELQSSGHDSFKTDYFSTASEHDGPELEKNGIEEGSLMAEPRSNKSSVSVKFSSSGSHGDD

Molecule | ∆G (FBF-2 RBD + CT L610A) | -T∆S (FBF-2 RBD + CT L610A; replicate 1, 20 °C) | ∆G (FBF-2 RBD + CT L610A; replicate 1, 20 °C) | ∆H (FBF-2 RBD + CT L610A; replicate 1, 20 °C) | -T∆S (FBF-2 RBD + CT L610A; replicate 2, 20 °C) | ∆H (FBF-2 RBD + CT L610A; replicate 2, 20 °C) | -T∆S (FBF-2 RBD [1]; replicate 1) | ∆G (FBF-2 RBD [1]; replicate 1) | ∆H (FBF-2 RBD [1]; replicate 1) | -T∆S (FBF-2 RBD [1]; replicate 2) | ∆G (FBF-2 RBD [1]; replicate 2) | ∆H (FBF-2 RBD [1]; replicate 2) | Kd (FBF-2 RBD [2])
LST-1 B: LST-1 B peptide, residues 67–98, expressed in E. coli (SSSPQQRSGLRSQKLHLTYIEKNKRVRAMIPQ; left off: His6-SUMO, N-terminal, cleaved) | -9.85 kcal/mol | 6 kcal/mol | -9.56 kcal/mol | -15.5 kcal/mol | 6.98 kcal/mol | -16.8 kcal/mol | 7.7 kcal/mol | -9.85 kcal/mol | -17.5 kcal/mol | 7.17 kcal/mol | -9.87 kcal/mol | -17 kcal/mol | –
AUCAUGUGCCAUAC (ssRNA) [gld-1 FBEa RNA (EMSA)] | – | – | – | – | – | – | – | – | – | – | – | – | 70 ± 23 nM
